Assay results from patent US6797695.

Molecular target: T1, Recombinant FGF-20 (rat, UniProt Q9EST9 1-212)
T1 construct: Immobilised on a CM5 sensor chip in the assay; also called recombinant rat FGF-20; rFGF-20
Experiment: SPR (BIACORE 2000), FGF-20 immobilised on CM5, receptor extracellular domain as analyte

T1 sequence (Q9EST9 other isoform, or with tags, fused parts or gaps limits assumed): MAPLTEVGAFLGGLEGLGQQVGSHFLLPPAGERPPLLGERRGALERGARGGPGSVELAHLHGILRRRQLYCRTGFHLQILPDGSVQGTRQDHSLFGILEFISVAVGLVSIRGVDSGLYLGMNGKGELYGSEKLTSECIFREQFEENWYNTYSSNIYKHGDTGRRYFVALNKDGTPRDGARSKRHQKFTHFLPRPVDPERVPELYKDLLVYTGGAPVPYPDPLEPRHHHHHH

B1: recombinant extracellular domain of FGFR-3c (receptor)
chain: ESLGTEQRVVGRAAEVPGPEPGQQEQLVFGSGDAVELSCPPPGGGPMGPTVWVKDGTGLVPSERVLVGPQRLQVLNASHEDSGAYSCRQRLTQRVLCHFSVRVTDAPSSGDDEDGEDEAEDTGVDTGAPYWTRPERMDKKLLAVPAANTVRFRCPAAGNPTPSISWLKNGREFRGEHRIGGIKLRHQQWSLVMESVVPSDRGNYTCVVENKFGSIRQTYTLDVLERSPHRPILQAGLPANQTAVLGSDVEFHCKVYSDAQPHIQWLKHVEVNGSKVGPDGTPYVTVLKTAGANTTDKELEVLSLHNVTFEDAGEYTCLAGNSIGFSHHSAWLVVLPAEEELVEADEAGSVYAG
Kd: 217 nM
koff: 0.0247 s⁻¹
kon: 115000 M⁻¹ s⁻¹
